These results are taken from US20130156779A1 (GlaxoSmithKline, published 2013).

Test [1] has as its target T1, Full-length human HER3 extracellular domain (ECD) (human, UniProt P21860 20-643).
T1 construct: also called human HER3 ECD; HER-3 ECD full length
Kind of test: BIACORE 3000 SPR, mAb captured by anti-human Fc, ECD as analyte, 25 C. As to the method:
The binding kinetics of these antibodies for was assessed using a BIACORE™ 3000. Antibodies were captured on a CM5 biosensor chip to which an immobilized anti-human IgG (Fc specific) BIACORE™ (GE Healthcare cat# BR-1008-39) monoclonal antibody had been conjugated using supplied coupling buffer (9000 RU). Full-length human HER3 ECD concentrations were injected for 120s at a flow rate of 30 ul/min. Biosensor chips were regenerated as described in Example 1. Kinetics were determined by global fitting of data to the 1:1 Langmuir model using BIACORE™ Evaluation software. Analytical runs were carried out at 25° C. using FIBS-EP as the running buffer.
Buffer cycle and double referencing were performed as described in Example 1; and 5) Regenerate biosensor chips with BIACORE™ optimized buffers.
In general terms: SPR reads the build-up and loss of mass on a sensor chip optically.

Test [2] concerns the target T1, Full-length human HER3 extracellular …. Kind of test: affinity summary table, method not given.
Test [3] deals with T2, Human HER3 ECD domain III (human, UniProt P21860 330-495).
T2 construct: also called D3; Domain 3
As to the kind of experiment: affinity summary table, method not given.

In test [4] the target is T1, Full-length human HER3 extracellular …. As to the kind of experiment: BIACORE 2000 SPR, mAb captured, HER3 protein as analyte, 25 C. As to the method: (§1) Mouse monoclonal antibodies were analysed using rabbit anti-mouse (RAM) IgG (GE Healthcare BR-1008-38) covalently coupled to a BIACORE™ CM5 chip (GE HEalthcare BR-1000-14) by primary amine chemistry (NHS/EDC activated) (GE Healthcare amine coupling kit BR-1000-50). Chimeric and humanized competitor monoclonal antibodies were analyzed using anti-human, Fc specific monoclonal (GE Healthcare BR-1008-39) similarly coupled. Each chip was also prepared with a reference surface to which no capture reagent antibody is coupled. Sensorgrams for cycles run with differing analyte concentrations are acquired for kinetic analysis. A cycle consists of capturing the monoclonal on the surface, a short stabilization period with flowing run buffer followed by binding of a defined concentration of analyte (ECD or sub-domain protein). Injection of analyte for surface binding (3-4 minutes) yields the association part of curve. This is followed by buffer only flow (3-4 minutes) which allows recording of dissociation data.
(§2) The general method for affinity analysis is as follows. First, chips were prepared and tested for reasonance units (RU) captured for several monoclonal antibody concentrations. Kinetic cycles were then run in which monoclonal antibody was captured to a level of approximately 100RU, analyte protein was allowed to bind then dissociate and the surface was regenerated to remove all but covalently coupled protein. RAM chips were regenerated with capture kit supplied 100 mM glycine pH1.7 and anti-human chips with capture kit supplied 3M MgCl₂. […] Several buffer cycles were run prior to analyte protein to ensure cycle consistency and in some experiments a buffer cycle is used a “double reference[.]” Analytes used were human full length HER3 extra cellular domain (ECD), separate sub-domains of the extracellular portion of human HER3 (D1, D2, D3, D4), or combination HER3 domain proteins (D1-2 and D2-3).

The target in test [5] is T2, Human HER3 ECD domain III. The test is described as above. As to the method: as §1, §2

The Kd is a measure of binding affinity in units of concentration. As a reminder, the koff is a measure of how fast the partners let go of each other. Low readings indicate slow dissociation, high ones fast dissociation. One may read the kon as the second-order rate constant of association.

Substitutions are numbered along the chain they refer to.

T1 sequence (P21860 20-643): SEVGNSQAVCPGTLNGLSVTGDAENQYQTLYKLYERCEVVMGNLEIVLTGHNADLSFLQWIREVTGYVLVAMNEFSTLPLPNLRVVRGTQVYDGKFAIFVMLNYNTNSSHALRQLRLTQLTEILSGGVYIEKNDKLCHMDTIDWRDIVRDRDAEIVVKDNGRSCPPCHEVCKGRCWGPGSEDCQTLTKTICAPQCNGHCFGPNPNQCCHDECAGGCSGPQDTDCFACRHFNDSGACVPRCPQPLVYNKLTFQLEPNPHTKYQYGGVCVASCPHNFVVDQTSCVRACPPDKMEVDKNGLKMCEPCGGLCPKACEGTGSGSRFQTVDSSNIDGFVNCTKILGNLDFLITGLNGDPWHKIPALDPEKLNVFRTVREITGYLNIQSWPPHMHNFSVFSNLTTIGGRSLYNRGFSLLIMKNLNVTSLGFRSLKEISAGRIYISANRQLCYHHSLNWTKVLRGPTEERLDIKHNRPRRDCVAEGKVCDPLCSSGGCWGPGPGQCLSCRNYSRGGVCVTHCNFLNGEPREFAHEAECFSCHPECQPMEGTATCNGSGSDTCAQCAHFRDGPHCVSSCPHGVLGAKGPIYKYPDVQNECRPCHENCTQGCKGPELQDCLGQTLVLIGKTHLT
T2 sequence (P21860 330-495): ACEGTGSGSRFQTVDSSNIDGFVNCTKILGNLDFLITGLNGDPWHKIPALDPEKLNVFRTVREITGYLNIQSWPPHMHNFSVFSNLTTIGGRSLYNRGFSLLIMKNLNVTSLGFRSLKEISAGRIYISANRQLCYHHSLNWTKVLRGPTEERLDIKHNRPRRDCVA

B1: 1D9 H6L0 RR antibody (antibody, V domains shown)
VH: QVQLVQSGAEVKKPGASVKVSCKASGYTFTSYWMHWVRQAPGQGLEWMGVIDPSDGYSHYNQKFKGKVTLTVDTSISTAYMELSRLRSDDTAVYYCAGGLAGTLDYWGQGTTVTVSS
VL: DIQMTQSPSSLSASVGDRVTITCRSSQSIVHSSGNTYLQWYQQKPGKAPKLLIYKVSNRFSGVPSRFSGSGSGTDFTLTISSLQPEDFAVYYCFQGSHVPWTFGQGTKLEIKR
notes: Humanized RR variant
In test [1], B1 gave a Kd of 7.51 nM, a koff of 0.00366 s⁻¹ and an on-rate (kon) of 487000 M⁻¹ s⁻¹.

B2: 1D9 H2L2 RR antibody (antibody, V domains shown)
VH: B1 VH with K67R, L70M, V72R
VL: B1 VL with Y41F
notes: Humanized RR variant
Regarding B2, in test [1], the Kd came out at 13.4 nM, the koff was 0.00444 s⁻¹ and the association rate constant (kon) came to 331000 M⁻¹ s⁻¹.

B3: 1D9 H0L7 RR antibody (antibody, V domains shown)
VH: B1 VH with K67R, L70M, V72R, G98R
VL: DVVMTQSPLSLPVTLGQPASISCRSSQSIVHSSGNTYLQWFQQRPGQSPRRLISKVSNRFSGVPDRFSGSGSGTDFTLKISRVEAEDVGVYYCFQGSHVPWTFGQGTKLEIKR
notes: Humanized RR variant; captured by anti-human Fc
Consider B3, for which, in test [1], the Kd came to 59.5 nM, the dissociation rate constant (koff) is 0.00195 s⁻¹ and the kon stood at 32700 M⁻¹ s⁻¹.

B4: 1D9 H6L9 RR antibody (antibody, V domains shown)
VH: B1 VH
VL: B3 VL with R50K, R51L
notes: Humanized RR variant
On to B4, for which, in test [1], the dissociation constant (Kd) amounted to 3.35 nM, the koff turned out to be 0.00223 s⁻¹ and the kon was 665000 M⁻¹ s⁻¹.

B5: Humanized 1D9 RR antibody (H6L2) (antibody, human IgG1, V domains shown)
VH: B1 VH
VL: DIQMTQSPSSLSASVGDRVTITCRSSQSIVHSSGNTYLQWFQQKPGKAPKLLIYKVSNRFSGVPSRFSGSGSGTDFTLTISSLQPEDFAVYYCFQGSHVPWTFGQGTKLEIKRR
notes: Human IgG1; also called 1D9 H6L2 RR antibody; h1D9 RR wt
In test [2], B5 gave a Kd of 4.1 nM. Moreover, binding in test [3] was put at a Kd of 0.018 nM. Also, in test [1], the Kd was 3.96 nM, the koff stood at 0.0017 s⁻¹ and the on-rate (kon) is 430000 M⁻¹ s⁻¹.

B6: 1D9 H6L3 RR antibody (antibody, V domains shown)
VH: B1 VH
VL: B1 VL with I2V
notes: Humanized RR variant
In test [1], B6 registered a Kd of 3.91 nM, an off-rate (koff) of 0.00302 s⁻¹ and an on-rate (kon) of 773000 M⁻¹ s⁻¹.

B7: 1D9 H3L6 RR antibody (antibody, V domains shown)
VH: B1 VH with L70M, V72R, G98R
VL: B3 VL with S54Y
Regarding B7, in test [1], binding was put at a Kd of 95.8 nM, the koff is 0.00292 s⁻¹ and the association rate constant (kon) was determined as 30400 M⁻¹ s⁻¹.

B8: 1D9 H6L6 RR antibody (antibody, V domains shown)
VH: B1 VH
VL: B3 VL with S54Y
notes: To be rechecked
In the case of B8, in test [1], the equilibrium dissociation constant (Kd) is 7.02 nM, the off-rate (koff) is 0.00487 s⁻¹ and the on-rate constant (kon) stood at 694000 M⁻¹ s⁻¹.

B9: 1D9 H6L4 RR antibody (antibody, V domains shown)
VH: B1 VH
VL: B1 VL with Q3L
Consider B9, for which, in test [1], binding was put at a Kd of 7.89 nM, the koff amounted to 0.0041 s⁻¹ and the kon was found to be 519000 M⁻¹ s⁻¹.

B10: 1D9 H6L5 RR antibody (antibody, V domains shown)
VH: B1 VH
VL: B1 VL with I2V, Q3L, Y41F, Y54S
notes: also called 1D9 116L5 RR antibody
B10: in test [1], the Kd was found to be 6.87 nM, the koff stood at 0.00371 s⁻¹ and the on-rate (kon) is 540000 M⁻¹ s⁻¹.

B11: 1D9 H3L2 RR antibody (antibody, V domains shown)
VH: B1 VH with L70M, V72R, G98R
VL: B1 VL with Y41F
notes: Humanized RR variant
For B11, in test [1], the dissociation constant (Kd) amounted to 59.4 nM, the off-rate constant (koff) stood at 0.00316 s⁻¹ and the kon worked out at 53300 M⁻¹ s⁻¹.

B12: 1D9 H0L9 RR antibody (antibody, V domains shown)
VH: B1 VH with K67R, L70M, V72R, G98R
VL: B3 VL with R50K, R51L
notes: Humanized RR variant; also called 1D9 HOL9 RR antibody
In test [1], B12 came in with a Kd of 38.1 nM, a koff of 0.0144 s⁻¹ and a kon of 377000 M⁻¹ s⁻¹.

B13: 15D5 H3L1 antibody (antibody, V domains shown)
VH: QVQLVQSGAEVKKPGASVKVSCKASGYTFTDYNMNWVRQAPGQGLEWMGGINPNYGTTVYNQKFKGKATLTVDQSISTAYMELSRLRSDDTAVYYCARMTTIVPFDYWGQGTTVTVSS
VL: DIQMTQSPSSLSASVGDRVTITCRASQDISNYLNWYQQKPGKAPKLLIYYTSTLHSGVPSRFSGSGSGTDYTFTISSLQPEDIATYYCQQGYTLPWTFGGGTKVEIKR
notes: Humanized 15D5 variant
Regarding B13, in test [1], the Kd was determined as 4.21 nM, the koff stood at 0.000171 s⁻¹ and the kon turned out to be 40500 M⁻¹ s⁻¹.

B14: 15D5 H4L3 (antibody, V domains shown)
VH: B13 VH with A68V, Q74T
VL: B13 VL with Y71F, F73L, I83F, G100Q, V104L
notes: To be rechecked
In test [1], B14 gave a Kd of 24.7 nM, a koff of 0.000935 s⁻¹ and an on-rate constant (kon) of 37900 M⁻¹ s⁻¹.

B15: 15D5 H3L3 antibody (antibody, V domains shown)
VH: B13 VH
VL: B13 VL with Y71F, F73L, I83F, G100Q, V104L
notes: also called 15D5 H31.3 antibody
In test [1], B15 had a Kd of 8.72 nM, a dissociation rate constant (koff) of 0.000367 s⁻¹ and a kon of 42100 M⁻¹ s⁻¹.

B16: 15D5 H2L2 antibody (antibody, V domains shown)
VH: B13 VH with R38K, M48I
VL: B13 VL with F73L, I83F, G100Q, V104L
notes: Humanized 15D5 variant
On to B16, for which, in test [1], binding was characterised by a dissociation constant (Kd) of 12.8 nM, the koff came to 0.00407 s⁻¹ and the on-rate (kon) is 317000 M⁻¹ s⁻¹.

B17: 15D5 H2L1 antibody (antibody, V domains shown)
VH: B13 VH with R38K, M48I
VL: B13 VL
notes: Humanized 15D5 variant
On to B17, for which, in test [1], the affinity, expressed as Kd, was 8.7 nM; the koff amounted to 0.000365 s⁻¹; the association rate constant (kon) came to 41900 M⁻¹ s⁻¹.

B18: 15D5 H1L3 antibody (antibody, V domains shown)
VH: B13 VH with V2F, T28S, R38K, M48I
VL: B13 VL with Y71F, F73L, I83F, G100Q, V104L
notes: Humanized 15D5 variant; also called 15D5 HIL3 antibody
As to B18, in test [1], binding was put at a Kd of 10 nM, the off-rate (koff) is 0.000345 s⁻¹ and the on-rate (kon) was determined as 34400 M⁻¹ s⁻¹.

B19: 15D5 H1L1 antibody (antibody, V domains shown)
VH: B13 VH with V2F, T28S, R38K, M48I
VL: B13 VL
Turning to B19, in test [1], the affinity, expressed as Kd, was 7.19 nM; the koff amounted to 0.000267 s⁻¹; the on-rate (kon) came out at 37100 M⁻¹ s⁻¹.

B20: Chimeric 1D9 antibody (antibody, V domains shown)
VH: QVQLQQPGAELVRPGTSVKLSCKASGYTFTSYWMHWVKQRPGQGLEWIGVIDPSDGYSHYNQKFKGKATLTVDTSSSTAYMQLSSLTSEDSAVYYCAGGLAGTLDYWGQGTTLTVSS
VL: DVLMTQTPLSLPVSLGDQASISCRSSQSIVHSSGNTYLQWFLQKPGQSPKLLISKVSNRFSGVPDRFSGSGSGTDFTLRISRVEAEDLGLYYCFQGSHVPWTFGGGTKLEIK
notes: Murine VH fused to human IgG1 CH1-Fc, murine VL fused to human CK; also called Ch1D9; ch1D9
For B20, the Kd in test [2] is around 1 nM; in test [3], 0.198 nM; in test [4], 1.1 nM; in test [5] it was 0.2 nM. Also, the figures for the kon in test [4] and in test [5] were 740000 M⁻¹ s⁻¹ and 4.58e+06 M⁻¹ s⁻¹, respectively.
